The target in the assay is T1, ACE2 on HEK-293 cells transfected with ACE2 (HEK-ACE2) (UniProt Q9BYF1 18-805).
T1 construct: ACE2 expressed in transfected HEK-293 cells; Expression verified earlier by western blotting (Beyer et al., 2023); also called ACE2-transfected HEK cells; source: HEK-293 cells transfected with ACE2, bought: Innoprot; on cells
As to the kind of experiment: radioligand binding; saturation binding of the radiopeptide (1-2000 nM, 5 MBq/nmol) on HEK-ACE2 cells, 1 h at 4 °C on ice, DMEM without supplements; non-specific binding determined with 20 µM DX600; n = 3. The settings on record: one partner purified.

Positions of bridges follow the written chain, without caps; N, C: chain ends. Non-standard residues stand in square brackets, D forms with d. *: point of attachment. DOTA = O=C(O)CN1CCN(CC(=O)O)CCN(CC(=O)*)CCN(CC(=O)O)CC1

T1 sequence (Q9BYF1 18-805): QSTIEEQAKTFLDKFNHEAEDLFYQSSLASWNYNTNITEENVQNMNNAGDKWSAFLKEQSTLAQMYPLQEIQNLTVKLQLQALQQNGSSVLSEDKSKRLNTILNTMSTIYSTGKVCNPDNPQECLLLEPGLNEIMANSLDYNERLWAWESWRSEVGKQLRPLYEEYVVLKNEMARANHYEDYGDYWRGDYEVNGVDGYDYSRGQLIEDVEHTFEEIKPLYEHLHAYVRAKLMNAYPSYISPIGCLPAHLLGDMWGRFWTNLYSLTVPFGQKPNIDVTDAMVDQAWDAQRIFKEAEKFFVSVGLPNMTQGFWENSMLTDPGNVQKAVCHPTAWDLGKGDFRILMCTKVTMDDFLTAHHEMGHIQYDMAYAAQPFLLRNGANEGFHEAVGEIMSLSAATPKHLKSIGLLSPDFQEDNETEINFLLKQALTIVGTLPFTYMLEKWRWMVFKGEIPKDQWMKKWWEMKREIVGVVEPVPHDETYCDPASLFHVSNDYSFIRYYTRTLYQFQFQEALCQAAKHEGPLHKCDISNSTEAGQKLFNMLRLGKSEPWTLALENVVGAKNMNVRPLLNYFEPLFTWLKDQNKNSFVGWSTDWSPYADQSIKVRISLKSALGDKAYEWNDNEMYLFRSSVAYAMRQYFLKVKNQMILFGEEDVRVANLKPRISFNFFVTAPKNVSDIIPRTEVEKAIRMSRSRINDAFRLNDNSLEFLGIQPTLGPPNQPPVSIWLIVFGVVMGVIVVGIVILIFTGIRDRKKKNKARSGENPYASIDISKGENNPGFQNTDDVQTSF

B1: [67Ga]Ga-DOTA-WJL-63 (peptide)
peptide: Ac-[dY]STQISRGFTRDSRGCGSGSGSK(DOTA)-NH2
modifications: bridge N-16; not fully specified (bridges); also: DOTA loaded with 67Ga
notes: WJL-63 with DOTA on the side chain of the C-terminal lysine; printed in three-letter code; Same peptide as m1 with a DOTA chelator and 67Ga; made on Rink amide resin, so the C-terminus should be an amide as in m1; also called radiolabeled DOTA-WJL-63; WJL-63 radiopeptide; source: synthetic peptide, DOTA conjugated, radiolabeled with gallium-67, used without further purification
One may read the Kd as the concentration at which binding is half-saturated. A lower Kd goes with higher affinity. In the case of B1, binding was characterised by a dissociation constant (Kd) of 90 nM.

(Values after PMC13142116, “Development and structure-guided characterization of a novel ACE2-binding macrocyclic peptide” (Journal of Structural Biology: X, 2026).)
